± gives the uncertainty stated by the source.
B1: Dynamin-binding protein, residues 146 to 206; numbered along this chain, Q6XZF7 (parent)
chain: SMGQARALMGLSAQLDEELDFREGDVITIIGVPEPGWFEGELEGRRGIFPEGFVELLGPLR

Variants of: B1
Assay: abundance fitness (aPCA) (normalised: wild type 0, dead -1); higher = more abundant; growth selection in yeast, the domain comes from the species named
Settings: Homo sapiens
SMGQARALMELSAQLDEELDFREGDVITIIGVPEPGWFEGELEGRRGIFPEGFVELLGPLR [G10E] showed an abundance fitness of -0.14 ± 0.09.
SMGQARALMQLSAQLDEELDFREGDVITIIGVPEPGWFEGELEGRRGIFPEGFVELLGPLR [G10Q] showed an abundance fitness of -0.016 ± 0.12.
In the case of SMGQARALMRLSAQLDEELDFREGDVITIIGVPEPGWFEGELEGRRGIFPEGFVELLGPLR [G10R], the abundance fitness is reported as -0.014 ± 0.055.
Work on SMGQARALMLLSAQLDEELDFREGDVITIIGVPEPGWFEGELEGRRGIFPEGFVELLGPLR [G10L] yielded an abundance fitness of -0.436 ± 0.13.
For SMGQARALMGLSAQLDCELDFREGDVITIIGVPEPGWFEGELEGRRGIFPEGFVELLGPLR [E17C], the abundance fitness was 0.07 ± 0.042.
SMGQARALMGLSAQLDTELDFREGDVITIIGVPEPGWFEGELEGRRGIFPEGFVELLGPLR [E17T] showed an abundance fitness of -0.101 ± 0.053.
SMGQARYLMGLSAQLDEELDFREGDVITIIGVPEPGWFEGELEGRRGIFPEGFVELLGPLR [A7Y] showed an abundance fitness of -0.93 ± 0.12.
With SMGQARKLMGLSAQLDEELDFREGDVITIIGVPEPGWFEGELEGRRGIFPEGFVELLGPLR [A7K] the abundance fitness was -0.672 ± 0.21.
Variant SMGQARFLMGLSAQLDEELDFREGDVITIIGVPEPGWFEGELEGRRGIFPEGFVELLGPLR [A7F] has an abundance fitness of -1.01 ± 0.21.
Work on SMGQARVLMGLSAQLDEELDFREGDVITIIGVPEPGWFEGELEGRRGIFPEGFVELLGPLR [A7V] yielded an abundance fitness of -0.836 ± 0.24.
Variant SMGQARNLMGLSAQLDEELDFREGDVITIIGVPEPGWFEGELEGRRGIFPEGFVELLGPLR [A7N] has an abundance fitness of -0.781 ± 0.11.
In the case of SMGQARELMGLSAQLDEELDFREGDVITIIGVPEPGWFEGELEGRRGIFPEGFVELLGPLR [A7E], the abundance fitness is reported as -0.989 ± 0.33.
SMGQARTLMGLSAQLDEELDFREGDVITIIGVPEPGWFEGELEGRRGIFPEGFVELLGPLR [A7T] gave an abundance fitness of -0.296 ± 0.21.
For SMGQARALFGLSAQLDEELDFREGDVITIIGVPEPGWFEGELEGRRGIFPEGFVELLGPLR [M9F], the abundance fitness was -0.225 ± 0.045.
In the case of SMGQARALCGLSAQLDEELDFREGDVITIIGVPEPGWFEGELEGRRGIFPEGFVELLGPLR [M9C], the abundance fitness is reported as -0.013 ± 0.061.
Work on SMGQARALTGLSAQLDEELDFREGDVITIIGVPEPGWFEGELEGRRGIFPEGFVELLGPLR [M9T] yielded an abundance fitness of 0.017 ± 0.051.
With SMGQARALMGLSHQLDEELDFREGDVITIIGVPEPGWFEGELEGRRGIFPEGFVELLGPLR [A13H] the abundance fitness was -0.548 ± 0.072.
Variant SMGQARALMGLSTQLDEELDFREGDVITIIGVPEPGWFEGELEGRRGIFPEGFVELLGPLR [A13T] has an abundance fitness of 0.353 ± 0.23.
In the case of SMGQARALMGLSPQLDEELDFREGDVITIIGVPEPGWFEGELEGRRGIFPEGFVELLGPLR [A13P], the abundance fitness is reported as 0.013 ± 0.078.
In the case of SMGQARALMGLSEQLDEELDFREGDVITIIGVPEPGWFEGELEGRRGIFPEGFVELLGPLR [A13E], the abundance fitness is reported as -0.57 ± 0.18.
Variant SMGQARALMGLSIQLDEELDFREGDVITIIGVPEPGWFEGELEGRRGIFPEGFVELLGPLR [A13I] has an abundance fitness of -0.541 ± 0.077.
With SMGQARALMGLSQQLDEELDFREGDVITIIGVPEPGWFEGELEGRRGIFPEGFVELLGPLR [A13Q] the abundance fitness was -0.348 ± 0.12.
Work on SMGQARALMGLMAQLDEELDFREGDVITIIGVPEPGWFEGELEGRRGIFPEGFVELLGPLR [S12M] yielded an abundance fitness of -0.083 ± 0.23.
Variant SMGQARALMGLEAQLDEELDFREGDVITIIGVPEPGWFEGELEGRRGIFPEGFVELLGPLR [S12E] has an abundance fitness of -0.426 ± 0.45.
With SMGQARALMGLLAQLDEELDFREGDVITIIGVPEPGWFEGELEGRRGIFPEGFVELLGPLR [S12L] the abundance fitness was -0.641 ± 0.12.
With SMGQARALMGLSAQLDEELDFWEGDVITIIGVPEPGWFEGELEGRRGIFPEGFVELLGPLR [R22W] the abundance fitness was -0.542 ± 0.11.
SMGQARALMGLSAQLDEELDFYEGDVITIIGVPEPGWFEGELEGRRGIFPEGFVELLGPLR [R22Y] gave an abundance fitness of -0.352 ± 0.19.
SMGQARALMGLSAQLDEELDFCEGDVITIIGVPEPGWFEGELEGRRGIFPEGFVELLGPLR [R22C] showed an abundance fitness of 0.081 ± 0.11.
Variant SMGQARALMGLSAQLDEELDFIEGDVITIIGVPEPGWFEGELEGRRGIFPEGFVELLGPLR [R22I] has an abundance fitness of -0.191 ± 0.064.
Work on SMGQARALMGLSAQLDEELDFQEGDVITIIGVPEPGWFEGELEGRRGIFPEGFVELLGPLR [R22Q] yielded an abundance fitness of -0.027 ± 0.089.
SMGQARALMGLSAQLDEELDFLEGDVITIIGVPEPGWFEGELEGRRGIFPEGFVELLGPLR [R22L] showed an abundance fitness of -0.282 ± 0.14.
With SMGQGRALMGLSAQLDEELDFREGDVITIIGVPEPGWFEGELEGRRGIFPEGFVELLGPLR [A5G] the abundance fitness was -0.008 ± 0.045.
SMGQSRALMGLSAQLDEELDFREGDVITIIGVPEPGWFEGELEGRRGIFPEGFVELLGPLR [A5S] showed an abundance fitness of -0.545 ± 0.13.
SMGQDRALMGLSAQLDEELDFREGDVITIIGVPEPGWFEGELEGRRGIFPEGFVELLGPLR [A5D] showed an abundance fitness of -0.706 ± 0.18.
With SMGQKRALMGLSAQLDEELDFREGDVITIIGVPEPGWFEGELEGRRGIFPEGFVELLGPLR [A5K] the abundance fitness was -0.696 ± 0.39.
SMGQPRALMGLSAQLDEELDFREGDVITIIGVPEPGWFEGELEGRRGIFPEGFVELLGPLR [A5P] gave an abundance fitness of -0.686 ± 0.11.
Variant SMGQCRALMGLSAQLDEELDFREGDVITIIGVPEPGWFEGELEGRRGIFPEGFVELLGPLR [A5C] has an abundance fitness of -0.302 ± 0.067.
In the case of SMGQANALMGLSAQLDEELDFREGDVITIIGVPEPGWFEGELEGRRGIFPEGFVELLGPLR [R6N], the abundance fitness is reported as -0.763 ± 0.094.
In the case of SMGQAQALMGLSAQLDEELDFREGDVITIIGVPEPGWFEGELEGRRGIFPEGFVELLGPLR [R6Q], the abundance fitness is reported as -0.495 ± 0.18.
SMGQAYALMGLSAQLDEELDFREGDVITIIGVPEPGWFEGELEGRRGIFPEGFVELLGPLR [R6Y] showed an abundance fitness of -0.471 ± 0.064.
In the case of SMGQARASMGLSAQLDEELDFREGDVITIIGVPEPGWFEGELEGRRGIFPEGFVELLGPLR [L8S], the abundance fitness is reported as -0.305 ± 0.045.
Work on SMGQARATMGLSAQLDEELDFREGDVITIIGVPEPGWFEGELEGRRGIFPEGFVELLGPLR [L8T] yielded an abundance fitness of 0.014 ± 0.057.
SMGQARALMGLSAQLDEELDFREEDVITIIGVPEPGWFEGELEGRRGIFPEGFVELLGPLR [G24E] showed an abundance fitness of -0.593 ± 0.2.
